Data: US20090118184A1 (UNIVERSITY OF ROCHESTER, published 2009)
Changes are numbered by the printed parent chain.

Columns and labels:
Assay in all cases: cell-based or functional assay
[1] = molecular target: T1, factor VIIIa A1/A3C1C2 dimer, Glu1984Val (human, UniProt P00451 20-391; P00451 1709-2351)
T1 sequence 1: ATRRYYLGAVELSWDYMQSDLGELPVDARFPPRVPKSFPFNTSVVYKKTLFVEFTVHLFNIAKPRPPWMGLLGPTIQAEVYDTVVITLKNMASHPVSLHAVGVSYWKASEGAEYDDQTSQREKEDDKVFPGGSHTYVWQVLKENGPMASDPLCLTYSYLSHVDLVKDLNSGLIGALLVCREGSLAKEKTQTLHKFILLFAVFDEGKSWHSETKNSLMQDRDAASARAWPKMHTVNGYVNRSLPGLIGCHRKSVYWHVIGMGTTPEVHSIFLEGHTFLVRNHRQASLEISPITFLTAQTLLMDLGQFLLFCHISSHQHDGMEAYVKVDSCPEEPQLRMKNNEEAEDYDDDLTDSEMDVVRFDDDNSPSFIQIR
T1 sequence 2: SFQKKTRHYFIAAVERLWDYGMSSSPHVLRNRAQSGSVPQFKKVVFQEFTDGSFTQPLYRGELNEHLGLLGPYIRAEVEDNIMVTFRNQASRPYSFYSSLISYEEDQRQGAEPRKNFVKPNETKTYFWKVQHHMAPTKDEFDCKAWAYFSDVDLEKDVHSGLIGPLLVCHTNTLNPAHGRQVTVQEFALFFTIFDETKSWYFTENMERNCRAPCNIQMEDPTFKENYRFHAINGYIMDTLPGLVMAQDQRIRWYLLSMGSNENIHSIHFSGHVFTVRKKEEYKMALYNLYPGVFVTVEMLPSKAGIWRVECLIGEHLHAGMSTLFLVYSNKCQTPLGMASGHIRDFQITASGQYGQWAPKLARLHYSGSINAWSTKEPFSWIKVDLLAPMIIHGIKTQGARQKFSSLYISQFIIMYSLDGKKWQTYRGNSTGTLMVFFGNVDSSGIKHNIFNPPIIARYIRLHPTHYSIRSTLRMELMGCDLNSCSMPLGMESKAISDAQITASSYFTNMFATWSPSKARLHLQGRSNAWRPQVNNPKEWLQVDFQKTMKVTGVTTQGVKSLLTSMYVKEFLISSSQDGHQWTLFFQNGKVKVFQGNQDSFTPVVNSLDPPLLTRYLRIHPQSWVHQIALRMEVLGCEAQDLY

[2] = molecular target: T2, factor VIIIa A1/A3C1C2 dimer, wild type (human, UniProt P00451 20-391; P00451 1709-2351)
T2 sequence 1: T1 sequence 1
T2 sequence 2: T1 sequence 2 with V295E

[3] = molecular target: T3, factor VIIIa A1/A3C1C2 dimer, Glu1984Ala (human, UniProt P00451 20-391; P00451 1709-2351)
T3 sequence 1: T1 sequence 1
T3 sequence 2: T1 sequence 2 with V295A

[4] = molecular target: T2, factor VIIIa A1/A3C1C2 dimer, wild type; remark: listed apart in the source
[5] = molecular target: T4, factor VIIIa A1/A3C1C2 dimer, Glu113Ala (human, UniProt P00451 20-391; P00451 1709-2351)
T4 chain 1: T1 sequence 1 with E113A
T4 chain 2: T1 sequence 2 with V295E

[6] = molecular target: T1, factor VIIIa A1/A3C1C2 dimer, Glu1984Val; remark: listed apart in the source
[7] = molecular target: T3, factor VIIIa A1/A3C1C2 dimer, Glu1984Ala; remark: listed apart in the source

B1: factor VIIIa A2 subunit, Asp519Val (other)
chain: SVAKKHPKTWVHYIAAEEEDWDYAPLVLAPDDRSYKSQYLNNGPQRIGRKYKKVRFMAYTDETFKTREAIQHESGILGPLLYGEVGDTLLIIFKNQASRPYNIYPHGITDVRPLYSRRLPKGVKHLKDFPILPGEIFKYKWTVTVEVGPTKSDPRCLTRYYSSFVNMERDLASGLIGPLLICYKESVDQRGNQIMSDKRNVILFSVFDENRSWYLTENIQRFLPNPAGVQLEDPEFQASNIMHSINGYVFDSLQLSVCLHEVAYWYILSIGAQTDFLSVFFSGYTFKHKMVYEDTLTLFPFSGETVFMSMENPGLWILGCHNSDFRNRGMTALLKVSSCDKNTGDYYEDSYEDISAYLLSKNNAIEPR
Decay rate relative to wild type, Factor VIIIa (1.5 nM, factor IXa absent) [1]: 0.19 relative to wild type
Decay rate, Factor VIIIa (1.5 nM factor VIIIa, factor IXa absent) [1]: 0.0262 min⁻¹
Decay rate relative to wild type, Factor VIIIa (1.5 nM, factor IXa absent) [2]: 0.6 relative to wild type
Decay rate, Factor VIIIa (1.5 nM factor VIIIa, factor IXa absent) [2]: 0.0836 min⁻¹
Decay rate relative to wild type, Factor VIIIa (1.5 nM, factor IXa absent) [3]: 0.12 relative to wild type
Decay rate, Factor VIIIa (1.5 nM factor VIIIa, factor IXa absent) [3]: 0.0168 min⁻¹
Factor VIIIa Decay relative to the WT value, Factor IXa absent [4]: 0.77 relative to WT
Factor VIIIa Decay relative to the WT value, Factor IXa present [4]: 0.44 relative to WT
Factor VIIIa Decay, Factor IXa absent [4]: 0.0642 min⁻¹
Factor VIIIa Decay, Factor IXa present [4]: 0.0068 min⁻¹
Decay rate relative to wild type, Factor VIIIa (1.5 nM, factor IXa absent) [5]: 0.35 relative to wild type
Decay rate, Factor VIIIa (1.5 nM factor VIIIa, factor IXa absent) [5]: 0.0495 min⁻¹

B2: factor VIIIa A2 subunit, Glu665Ala (other)
chain: B1 chain with V147D, E293A
Decay rate relative to wild type, Factor VIIIa (1.5 nM, factor IXa absent) [1]: 0.9 relative to wild type
Decay rate, Factor VIIIa (1.5 nM factor VIIIa, factor IXa absent) [1]: 0.127 min⁻¹
Decay rate relative to wild type, Factor VIIIa (1.5 nM, factor IXa absent) [2]: 0.6 relative to wild type
Decay rate, Factor VIIIa (1.5 nM factor VIIIa, factor IXa absent) [2]: 0.0834 min⁻¹
Decay rate relative to wild type, Factor VIIIa (1.5 nM, factor IXa absent) [3]: 0.93 relative to wild type
Decay rate, Factor VIIIa (1.5 nM factor VIIIa, factor IXa absent) [3]: 0.13 min⁻¹
factor VIIIa decay rate relative to the better single mutation of the pairing [6]: ~2.7 fold
factor VIIIa decay rate relative to the better single mutation of the pairing [7]: ~2.2 fold
Factor VIIIa Decay relative to the WT value, Factor IXa absent [4]: 0.62 relative to WT
Factor VIIIa Decay relative to the WT value, Factor IXa present [4]: 0.51 relative to WT
Factor VIIIa Decay, Factor IXa absent [4]: 0.052 min⁻¹
Factor VIIIa Decay, Factor IXa present [4]: 0.0078 min⁻¹
Decay rate relative to wild type, Factor VIIIa (1.5 nM, factor IXa absent) [5]: 0.54 relative to wild type
Decay rate, Factor VIIIa (1.5 nM factor VIIIa, factor IXa absent) [5]: 0.0754 min⁻¹
